Measured values published in patent publication US20260167699A1 (Chugai, published 2026).

B1: GpH7-A5/GpH7-B3 variant T335_13S/GpL16-k0 (antibody, human IgG1, kappa)
heavy 1: not shown
heavy 2: not shown
light: DIVMTQSPLSLPVTPGEPASISCQASESLVHSNRNTYLHWYLQKPGQSPQLLIYKVSNRFSGVPDRFSGSGSGTDFTLKISRVEAEDVGVYYCSQNTHVPPTFGQGTKVEIERTVAAPSVFIFPPSDEQLKSGTASVVCLLNNFYPREAKVQWKVDNALQSGNSQESVTEQDSKDSTYSLSSTLTLSKADYEKHKVYACEVTHQGLSSPVTKSFNRGEC
notes: copies: 1 + 1 + 2
B2: GpH7-A5/GpH7-B3 variant T335_15Y/GpL16-k0 (antibody, human IgG1, kappa)
heavy 1: not shown
heavy 2: not shown
light: B1 light
notes: copies: 1 + 1 + 2
B3: GpH7-A5/GpH7-B3 variant T335_16H/GpL16-k0 (antibody, human IgG1, kappa)
heavy 1: not shown
heavy 2: not shown
light: B1 light
notes: copies: 1 + 1 + 2
B4: GpH7-A5/GpH7-B3 variant T335_18N/GpL16-k0 (antibody, human IgG1, kappa)
heavy 1: not shown
heavy 2: not shown
light: B1 light
notes: copies: 1 + 1 + 2
B5: GpH7-A5/GpH7-B3 variant T335_19Q/GpL16-k0 (antibody, human IgG1, kappa)
heavy 1: not shown
heavy 2: not shown
light: B1 light
notes: copies: 1 + 1 + 2
B6: GpH7-A5/GpH7-B3 variant T335_20W/GpL16-k0 (antibody, human IgG1, kappa)
heavy 1: not shown
heavy 2: not shown
light: B1 light
notes: copies: 1 + 1 + 2
B7: GpH7-A5/GpH7-B3 variant V266_02A/GpL16-k0 (antibody, human IgG1, kappa)
heavy 1: not shown
heavy 2: not shown
light: B1 light
notes: copies: 1 + 1 + 2
B8: GpH7-A5/GpH7-B3 variant V266_06M/GpL16-k0 (antibody, human IgG1, kappa)
heavy 1: not shown
heavy 2: not shown
light: B1 light
notes: copies: 1 + 1 + 2
B9: GpH7-A5/GpH7-B3 variant V266_07I/GpL16-k0 (antibody, human IgG1, kappa)
heavy 1: not shown
heavy 2: not shown
light: B1 light
notes: copies: 1 + 1 + 2
B10: GpH7-A5/GpH7-B3 variant V266_08L/GpL16-k0 (antibody, human IgG1, kappa)
heavy 1: not shown
heavy 2: not shown
light: B1 light
notes: copies: 1 + 1 + 2
B11: GpH7-A5/GpH7-B3 variant Y296_01G/GpL16-k0 (antibody, human IgG1, kappa)
heavy 1: not shown
heavy 2: not shown
light: B1 light
notes: copies: 1 + 1 + 2
B12: GpH7-A5/GpH7-B3 variant Y296_02A/GpL16-k0 (antibody, human IgG1, kappa)
heavy 1: not shown
heavy 2: not shown
light: B1 light
notes: copies: 1 + 1 + 2
B13: GpH7-A5/GpH7-B3 variant Y296_03V/GpL16-k0 (antibody, human IgG1, kappa)
heavy 1: not shown
heavy 2: not shown
light: B1 light
notes: copies: 1 + 1 + 2
B14: GpH7-A5/GpH7-B3 variant Y296_04F/GpL16-k0 (antibody, human IgG1, kappa)
heavy 1: not shown
heavy 2: not shown
light: B1 light
notes: copies: 1 + 1 + 2
B15: GpH7-A5/GpH7-B3 variant Y296_06M/GpL16-k0 (antibody, human IgG1, kappa)
heavy 1: not shown
heavy 2: not shown
light: B1 light
notes: copies: 1 + 1 + 2
B16: GpH7-A5/GpH7-B3 variant Y296_07I/GpL16-k0 (antibody, human IgG1, kappa)
heavy 1: not shown
heavy 2: not shown
light: B1 light
notes: copies: 1 + 1 + 2
B17: GpH7-A5/GpH7-B3 variant Y296_08L/GpL16-k0 (antibody, human IgG1, kappa)
heavy 1: not shown
heavy 2: not shown
light: B1 light
notes: copies: 1 + 1 + 2
B18: GpH7-A5/GpH7-B3 variant Y296_09D/GpL16-k0 (antibody, human IgG1, kappa)
heavy 1: not shown
heavy 2: not shown
light: B1 light
notes: copies: 1 + 1 + 2
B19: GpH7-A5/GpH7-B3 variant Y296_10E/GpL16-k0 (antibody, human IgG1, kappa)
heavy 1: not shown
heavy 2: not shown
light: B1 light
notes: copies: 1 + 1 + 2
B20: GpH7-A5/GpH7-B3 variant Y296_11K/GpL16-k0 (antibody, human IgG1, kappa)
heavy 1: not shown
heavy 2: not shown
light: B1 light
notes: copies: 1 + 1 + 2
B21: GpH7-A5/GpH7-B3 variant Y296_12R/GpL16-k0 (antibody, human IgG1, kappa)
heavy 1: not shown
heavy 2: not shown
light: B1 light
notes: copies: 1 + 1 + 2
B22: GpH7-A5/GpH7-B3 variant Y296_13S/GpL16-k0 (antibody, human IgG1, kappa)
heavy 1: not shown
heavy 2: not shown
light: B1 light
notes: copies: 1 + 1 + 2
B23: GpH7-A5/GpH7-B3 variant Y296_14T/GpL16-k0 (antibody, human IgG1, kappa)
heavy 1: not shown
heavy 2: not shown
light: B1 light
notes: copies: 1 + 1 + 2
B24: GpH7-A5/GpH7-B3 variant Y296_16H/GpL16-k0 (antibody, human IgG1, kappa)
heavy 1: not shown
heavy 2: not shown
light: B1 light
notes: copies: 1 + 1 + 2
B25: GpH7-A5/GpH7-B3 variant Y296_18N/GpL16-k0 (antibody, human IgG1, kappa)
heavy 1: not shown
heavy 2: not shown
light: B1 light
notes: copies: 1 + 1 + 2
B26: GpH7-A5/GpH7-B3 variant Y296_19Q/GpL16-k0 (antibody, human IgG1, kappa)
heavy 1: not shown
heavy 2: not shown
light: B1 light
notes: copies: 1 + 1 + 2
B27: GpH7-A5/GpH7-B3 variant Y296_20W/GpL16-k0 (antibody, human IgG1, kappa)
heavy 1: not shown
heavy 2: not shown
light: B1 light
notes: copies: 1 + 1 + 2
B28: GpH7-A5/GpH7-B3 variant Y300_01G/GpL16-k0 (antibody, human IgG1, kappa)
heavy 1: not shown
heavy 2: not shown
light: B1 light
notes: copies: 1 + 1 + 2
B29: GpH7-A5/GpH7-B3 variant Y300_02A/GpL16-k0 (antibody, human IgG1, kappa)
heavy 1: not shown
heavy 2: not shown
light: B1 light
notes: copies: 1 + 1 + 2
B30: GpH7-A5/GpH7-B3 variant Y300_03V/GpL16-k0 (antibody, human IgG1, kappa)
heavy 1: not shown
heavy 2: not shown
light: B1 light
notes: copies: 1 + 1 + 2
B31: GpH7-A5/GpH7-B3 variant Y300_04F/GpL16-k0 (antibody, human IgG1, kappa)
heavy 1: not shown
heavy 2: not shown
light: B1 light
notes: copies: 1 + 1 + 2

target: T1, FcγRIIIa (human, UniProt P08637 17-208); assay: SPR (Biacore);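 note: antibody variants captured on an SPR sensor chip, with FcγRIIIa passed over as analyte in HBS-EP+ buffer at 25 °C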
T1 construct: extracellular domain; also called 3a; FcγRIIIa extracellular domain
T1 sequence (P08637 other isoform, or with tags, fused parts or gaps): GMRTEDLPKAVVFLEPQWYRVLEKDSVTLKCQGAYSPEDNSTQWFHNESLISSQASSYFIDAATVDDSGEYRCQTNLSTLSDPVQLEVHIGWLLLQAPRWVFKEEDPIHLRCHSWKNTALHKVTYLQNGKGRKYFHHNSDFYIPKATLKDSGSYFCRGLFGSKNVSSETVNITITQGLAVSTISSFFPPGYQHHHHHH

Binder | He/Con 3a
B1 | 100 % of GpH7-A5/GpH7-B3/GpL16-k0
B2 | 99.7 % of GpH7-A5/GpH7-B3/GpL16-k0
B3 | 99.3 % of GpH7-A5/GpH7-B3/GpL16-k0
B4 | 94.4 % of GpH7-A5/GpH7-B3/GpL16-k0
B5 | 97.7 % of GpH7-A5/GpH7-B3/GpL16-k0
B6 | 97.3 % of GpH7-A5/GpH7-B3/GpL16-k0
B7 | 56.8 % of GpH7-A5/GpH7-B3/GpL16-k0
B8 | 84.9 % of GpH7-A5/GpH7-B3/GpL16-k0
B9 | 113 % of GpH7-A5/GpH7-B3/GpL16-k0
B10 | 117 % of GpH7-A5/GpH7-B3/GpL16-k0
B11 | 51.3 % of GpH7-A5/GpH7-B3/GpL16-k0
B12 | 66.3 % of GpH7-A5/GpH7-B3/GpL16-k0
B13 | 69.1 % of GpH7-A5/GpH7-B3/GpL16-k0
B14 | 79.5 % of GpH7-A5/GpH7-B3/GpL16-k0
B15 | 74.6 % of GpH7-A5/GpH7-B3/GpL16-k0
B16 | 75.8 % of GpH7-A5/GpH7-B3/GpL16-k0

Binder | He/Con 3a
B17 | 72.4 % of GpH7-A5/GpH7-B3/GpL16-k0
B18 | 89 % of GpH7-A5/GpH7-B3/GpL16-k0
B19 | 76.8 % of GpH7-A5/GpH7-B3/GpL16-k0
B20 | 53.3 % of GpH7-A5/GpH7-B3/GpL16-k0
B21 | 66.5 % of GpH7-A5/GpH7-B3/GpL16-k0
B22 | 58.1 % of GpH7-A5/GpH7-B3/GpL16-k0
B23 | 60.7 % of GpH7-A5/GpH7-B3/GpL16-k0
B24 | 69.1 % of GpH7-A5/GpH7-B3/GpL16-k0
B25 | 67.9 % of GpH7-A5/GpH7-B3/GpL16-k0
B26 | 71.4 % of GpH7-A5/GpH7-B3/GpL16-k0
B27 | 127 % of GpH7-A5/GpH7-B3/GpL16-k0
B28 | 88.6 % of GpH7-A5/GpH7-B3/GpL16-k0
B29 | 88.1 % of GpH7-A5/GpH7-B3/GpL16-k0
B30 | 83.8 % of GpH7-A5/GpH7-B3/GpL16-k0
B31 | 100 % of GpH7-A5/GpH7-B3/GpL16-k0
